Drawing on paper PMC12102759 (2025), this text covers screen value for 75 variants.

The chains are these.
B1: PEX5 peptide 240-255 (Peroxisomal targeting signal 1 receptor), 16-mer library wild type / PEX14 Pex14 (PEX14 PEX14, residues 16-84) (parent complex)
chain 1: AEQWAAEFIQQQGTSD
chain 2: TPGSENVLPREPLIATAVKFLQNSRVRQSPLATRRAFLKKKGLTDEEIDMAFQQSGTAADEPSSLGPAT
B2: PAIP1 peptide 124-139 (Polyadenylate-binding protein-interacting protein 1), 16-mer library wild type / PABPC1 PABC (PABPC1 PABC domain, residues 544-623) (parent complex)
chain 1: LMSKLSVNAPEFYPSG
chain 2: PLTASMLASAPPQEQKQMLGERLFPLIQAMHPTLAGKITGMLLEIDNSELLHMLESPESLRSKVDEAVAVLQAHQAKEAA

Variants of B1 are the subject of one test. Description: proteomic peptide phage display deep mutational scan (ProP-PD DMS): M13 P8 16-mer library selected against immobilised GST-tagged bait for four days (rounds), NGS of the eluted pools per day and pseudo-replica; bait immobilised on MaxiSorp plates (10 µg), library pre-cleared on GST, 2 h binding at 4 °C, five washes; one round per day, days 1-4; value from days 2 and 3.
chain 1 T14W: the screen value is 0.000366 average fractional NGS count over selection days 2 and 3 (reads of this peptide / all reads for the bait, averaged over ….

Regarding chain 1 E2T, the screen value was 0.00227 average fractional NGS count over selection days 2 and 3 (reads of this peptide / all reads for the bait, averaged over ….

As to chain 1 E2H, the screen value is 0.00822 average fractional NGS count over selection days 2 and 3 (reads of this peptide / all reads for the bait, averaged over …. The same measure, in the same setting: under chain 1 E2S stands 0.000804 average fractional NGS count over selection days 2 and 3 (reads of this peptide / all reads for the bait, averaged over …. In the case of chain 1 E2M, the screen value was 0.00435 average fractional NGS count over selection days 2 and 3 (reads of this peptide / all reads for the bait, averaged over ….

With chain 1 E2D, the screen value is 0.00048 average fractional NGS count over selection days 2 and 3 (reads of this peptide / all reads for the bait, averaged over …. The same measure, in the same setting: the same measure for chain 1 E2N: 0.0028 average fractional NGS count over selection days 2 and 3 (reads of this peptide / all reads for the bait, averaged over …. The same measure, in the same setting: the same measure for chain 1 E2Y: 0.00378 average fractional NGS count over selection days 2 and 3 (reads of this peptide / all reads for the bait, averaged over …. Same read-out and setting: under chain 1 E2R stands 0.00281 average fractional NGS count over selection days 2 and 3 (reads of this peptide / all reads for the bait, averaged over …; under chain 1 E2G, 0.000866 average fractional NGS count over selection days 2 and 3 (reads of this peptide / all reads for the bait, averaged over …. Take chain 1 E2W: the screen value was 0.000954 average fractional NGS count over selection days 2 and 3 (reads of this peptide / all reads for the bait, averaged over ….

As for chain 1 E2P, the screen value is 0.000798 average fractional NGS count over selection days 2 and 3 (reads of this peptide / all reads for the bait, averaged over …. The same measure, in the same setting: the same measure for chain 1 A1I: 0.000927 average fractional NGS count over selection days 2 and 3 (reads of this peptide / all reads for the bait, averaged over …. The same measure, in the same setting: under chain 1 A1H stands 0.0701 average fractional NGS count over selection days 2 and 3 (reads of this peptide / all reads for the bait, averaged over …; under chain 1 A1R, 0.000918 average fractional NGS count over selection days 2 and 3 (reads of this peptide / all reads for the bait, averaged over …. On the same count and under the same terms, the same measure for chain 1 A1K: 0.000873 average fractional NGS count over selection days 2 and 3 (reads of this peptide / all reads for the bait, averaged over ….

In the case of chain 1 A1W, the screen value is 0.00504 average fractional NGS count over selection days 2 and 3 (reads of this peptide / all reads for the bait, averaged over ….

chain 1 A1E: the screen value is 0.000945 average fractional NGS count over selection days 2 and 3 (reads of this peptide / all reads for the bait, averaged over …. Still for that read-out and setting: under chain 1 A1Q stands 0.00549 average fractional NGS count over selection days 2 and 3 (reads of this peptide / all reads for the bait, averaged over …; under chain 1 A1P, 0.000938 average fractional NGS count over selection days 2 and 3 (reads of this peptide / all reads for the bait, averaged over …; under chain 1 I9L, 0.000942 average fractional NGS count over selection days 2 and 3 (reads of this peptide / all reads for the bait, averaged over ….

In the case of chain 1 I9F, the screen value is 0.00108 average fractional NGS count over selection days 2 and 3 (reads of this peptide / all reads for the bait, averaged over ….

As to chain 1 I9W, the screen value was 0.00339 average fractional NGS count over selection days 2 and 3 (reads of this peptide / all reads for the bait, averaged over …. The same measure, in the same setting: the same measure for chain 1 I9R: 0.00363 average fractional NGS count over selection days 2 and 3 (reads of this peptide / all reads for the bait, averaged over …. Same read-out and setting: the same measure for chain 1 I9D: 0.000867 average fractional NGS count over selection days 2 and 3 (reads of this peptide / all reads for the bait, averaged over …. On to chain 1 I9T, for which the screen value was 0.000404 average fractional NGS count over selection days 2 and 3 (reads of this peptide / all reads for the bait, averaged over …. The same measure, in the same setting: under chain 1 I9Y stands 0.0023 average fractional NGS count over selection days 2 and 3 (reads of this peptide / all reads for the bait, averaged over …; under chain 1 I9H, 0.0279 average fractional NGS count over selection days 2 and 3 (reads of this peptide / all reads for the bait, averaged over …; under chain 1 I9Q, 0.00295 average fractional NGS count over selection days 2 and 3 (reads of this peptide / all reads for the bait, averaged over …. The same measure, in the same setting: the same measure for chain 1 I9K: 0.000873 average fractional NGS count over selection days 2 and 3 (reads of this peptide / all reads for the bait, averaged over …; for chain 1 I9M: 0.00443 average fractional NGS count over selection days 2 and 3 (reads of this peptide / all reads for the bait, averaged over …; for chain 1 I9G: 0.000546 average fractional NGS count over selection days 2 and 3 (reads of this peptide / all reads for the bait, averaged over ….

Turning to chain 1 I9A, the screen value is 0.00188 average fractional NGS count over selection days 2 and 3 (reads of this peptide / all reads for the bait, averaged over …. On the same count and under the same terms, the same measure for chain 1 F8Y: 0.000429 average fractional NGS count over selection days 2 and 3 (reads of this peptide / all reads for the bait, averaged over …; for chain 1 F8W: 0.00184 average fractional NGS count over selection days 2 and 3 (reads of this peptide / all reads for the bait, averaged over …. Still for that read-out and setting: the same measure for chain 1 F8M: 0.00109 average fractional NGS count over selection days 2 and 3 (reads of this peptide / all reads for the bait, averaged over …. For chain 1 E7Y, the screen value is 0.00419 average fractional NGS count over selection days 2 and 3 (reads of this peptide / all reads for the bait, averaged over …. The same measure, in the same setting: the same measure for chain 1 E7D: 0.00269 average fractional NGS count over selection days 2 and 3 (reads of this peptide / all reads for the bait, averaged over …. Same read-out and setting: the same measure for chain 1 E7K: 0.000488 average fractional NGS count over selection days 2 and 3 (reads of this peptide / all reads for the bait, averaged over …. For chain 1 E7I, the screen value is 0.000858 average fractional NGS count over selection days 2 and 3 (reads of this peptide / all reads for the bait, averaged over …. Turning to chain 1 E7T, the screen value was 0.0012 average fractional NGS count over selection days 2 and 3 (reads of this peptide / all reads for the bait, averaged over …. Take chain 1 E7W: the screen value is 0.00666 average fractional NGS count over selection days 2 and 3 (reads of this peptide / all reads for the bait, averaged over ….

Consider chain 1 E7A, for which the screen value was 0.00276 average fractional NGS count over selection days 2 and 3 (reads of this peptide / all reads for the bait, averaged over ….

With chain 1 E7G, the screen value was 0.00104 average fractional NGS count over selection days 2 and 3 (reads of this peptide / all reads for the bait, averaged over …. Still for that read-out and setting: the same measure for chain 1 E7Q: 0.00112 average fractional NGS count over selection days 2 and 3 (reads of this peptide / all reads for the bait, averaged over …; for chain 1 E7L: 0.0199 average fractional NGS count over selection days 2 and 3 (reads of this peptide / all reads for the bait, averaged over …. Same read-out and setting: under chain 1 Q10M stands 0.00324 average fractional NGS count over selection days 2 and 3 (reads of this peptide / all reads for the bait, averaged over …; under chain 1 Q10L, 0.00121 average fractional NGS count over selection days 2 and 3 (reads of this peptide / all reads for the bait, averaged over …; under chain 1 Q10G, 0.00258 average fractional NGS count over selection days 2 and 3 (reads of this peptide / all reads for the bait, averaged over …. As to chain 1 Q10I, the screen value is 0.00252 average fractional NGS count over selection days 2 and 3 (reads of this peptide / all reads for the bait, averaged over ….

As to chain 1 Q10T, the screen value is 0.00279 average fractional NGS count over selection days 2 and 3 (reads of this peptide / all reads for the bait, averaged over …. Still for that read-out and setting: the same measure for chain 1 Q10W: 0.0034 average fractional NGS count over selection days 2 and 3 (reads of this peptide / all reads for the bait, averaged over …; for chain 1 Q10V: 0.00204 average fractional NGS count over selection days 2 and 3 (reads of this peptide / all reads for the bait, averaged over …. Still for that read-out and setting: under chain 1 Q10D stands 0.000871 average fractional NGS count over selection days 2 and 3 (reads of this peptide / all reads for the bait, averaged over …. Same read-out and setting: the same measure for chain 1 Q10N: 0.00173 average fractional NGS count over selection days 2 and 3 (reads of this peptide / all reads for the bait, averaged over …; for chain 1 Q10F: 0.00183 average fractional NGS count over selection days 2 and 3 (reads of this peptide / all reads for the bait, averaged over …. As for chain 1 Q10H, the screen value was 0.00189 average fractional NGS count over selection days 2 and 3 (reads of this peptide / all reads for the bait, averaged over …. Take chain 1 Q10E: the screen value is 0.0048 average fractional NGS count over selection days 2 and 3 (reads of this peptide / all reads for the bait, averaged over …. Consider chain 1 Q10Y, for which the screen value was 0.00306 average fractional NGS count over selection days 2 and 3 (reads of this peptide / all reads for the bait, averaged over …. In the case of chain 1 Q10R, the screen value was 0.00109 average fractional NGS count over selection days 2 and 3 (reads of this peptide / all reads for the bait, averaged over ….

In another test the parent is B2. The description is as above.
Take chain 1 S3M: the screen value is 0.000284 average fractional NGS count over selection days 2 and 3 (reads of this peptide / all reads for the bait, averaged over …. The same measure, in the same setting: under chain 1 S3N stands 0.000537 average fractional NGS count over selection days 2 and 3 (reads of this peptide / all reads for the bait, averaged over …; under chain 1 S3A, 0.00075 average fractional NGS count over selection days 2 and 3 (reads of this peptide / all reads for the bait, averaged over …; under chain 1 P14V, 0.000836 average fractional NGS count over selection days 2 and 3 (reads of this peptide / all reads for the bait, averaged over …. For chain 1 P10L, the screen value is 0.00239 average fractional NGS count over selection days 2 and 3 (reads of this peptide / all reads for the bait, averaged over …. The same measure, in the same setting: the same measure for chain 1 P10Y: 0.000572 average fractional NGS count over selection days 2 and 3 (reads of this peptide / all reads for the bait, averaged over …; for chain 1 G16R: 0.000806 average fractional NGS count over selection days 2 and 3 (reads of this peptide / all reads for the bait, averaged over …. On the same count and under the same terms, the same measure for chain 1 G16W: 0.000405 average fractional NGS count over selection days 2 and 3 (reads of this peptide / all reads for the bait, averaged over …. The same measure, in the same setting: the same measure for chain 1 M2A: 0.000739 average fractional NGS count over selection days 2 and 3 (reads of this peptide / all reads for the bait, averaged over …; for chain 1 S6T: 0.0012 average fractional NGS count over selection days 2 and 3 (reads of this peptide / all reads for the bait, averaged over …. On to chain 1 S15F, for which the screen value is 0.00282 average fractional NGS count over selection days 2 and 3 (reads of this peptide / all reads for the bait, averaged over …. On the same count and under the same terms, the same measure for chain 1 S15Q: 0.000451 average fractional NGS count over selection days 2 and 3 (reads of this peptide / all reads for the bait, averaged over …; for chain 1 K4N: 0.0102 average fractional NGS count over selection days 2 and 3 (reads of this peptide / all reads for the bait, averaged over …; for chain 1 K4Y: 0.00101 average fractional NGS count over selection days 2 and 3 (reads of this peptide / all reads for the bait, averaged over ….

Take chain 1 K4L: the screen value is 0.0004 average fractional NGS count over selection days 2 and 3 (reads of this peptide / all reads for the bait, averaged over ….
